Measured values as given in paper PMC9841416.
pIC50: −log10 of the molar value.

Target: NTH-RNase E wild type (Escherichia coli (K12, P21513-1 in alignment)) (UniProt P21513)
Test: competition
Conditions: competitor of 7.5 nM BR15 quadruplex, 20 nM NTH, 25 mM bis-Tris propane pH 8.3, 100 mM KCl, 15 mM CaCl2, 0.1% (v/v) Triton X-100, 1 mM DTT, 20% (v/v) glycerol, 37 C 20 min, 1% agarose gel in 1x TBE

Substance	pIC50	pIC50 (does not compete effectively)
metU-tRNA with 5' and 3' single-stranded regions	6.83	–
glnW-tRNA (no flanking single-stranded regions)	–	< 5.60
glnW-metU segment	6.64	–
